Here are results for two molecules from publication PMC3790820, “A Rapid and High-Throughput Quantitation Assay of the Nuclear Factor κB Activity Using Fluorescence Correlation Spectroscopy in the Setting of Clinical Laboratories”.

Data set [1] addresses T1, NF-kB p50 (hr-p50) (human (recombinant), UniProt P19838 1-433). Put plainly: competition (FCS); little effect at 1 and 50 nM competitor; TAMRA probe N1; 50 mM Tris-HCl pH 7.5, 250 mM NaCl, 1 mM EDTA, 2.5 mM DTT, 10% glycerol, 1 nM TAMRA probe, 1 ug poly(dI-dC), room temperature, 10 min. As to conditions: protein: commercial; chain copies: 2; hairpin, 21 bp stem, AAAA loop.

For data set [2], the target named is T1, NF-kB p50 (hr-p50). Nature of the data set: competition (FCS); 868.0 us at 1 nM, 495.8 us at 50 nM competitor; TAMRA probe N1; 50 mM Tris-HCl pH 7.5, 250 mM NaCl, 1 mM EDTA, 2.5 mM DTT, 10% glycerol, 1 nM TAMRA probe, 1 ug poly(dI-dC), room temperature, 10 min. The note with it: protein: commercial; chain copies: 2; hairpin, 22 bp stem, AAAA loop.

T1 sequence (P19838 1-433): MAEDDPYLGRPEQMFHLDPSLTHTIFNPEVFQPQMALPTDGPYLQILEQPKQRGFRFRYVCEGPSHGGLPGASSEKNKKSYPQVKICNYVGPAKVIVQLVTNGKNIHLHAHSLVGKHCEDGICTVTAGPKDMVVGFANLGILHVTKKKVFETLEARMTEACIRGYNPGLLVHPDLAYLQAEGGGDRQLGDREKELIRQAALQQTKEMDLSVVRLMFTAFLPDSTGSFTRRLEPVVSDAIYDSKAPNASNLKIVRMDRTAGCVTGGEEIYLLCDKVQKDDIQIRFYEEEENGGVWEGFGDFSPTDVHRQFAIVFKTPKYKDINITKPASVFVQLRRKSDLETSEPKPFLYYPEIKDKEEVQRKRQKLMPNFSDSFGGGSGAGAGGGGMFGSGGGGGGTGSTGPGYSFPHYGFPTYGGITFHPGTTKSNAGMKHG

B1: nonspecific competitor stem-loop (structured_DNA)
DNA: CAGGCGCGTTTTGACCATCTTAAAAAAGATGGTCAAAACGCGCCTG
As to B1, in the data set with NF-kB p50 (hr-p50) [1], the binding result is on record as “no binding”.

B2: wild-type competitor stem-loop (structured_DNA)
DNA: AGTTGAGGGGACTTTCCCAGGCAAAAGCCTGGGAAAGTCCCCTCAACT
For B2, the binding result in the data set with NF-kB p50 (hr-p50) [2] is recorded as “binds”.
